Test results: IntAct's records for PubMed 16365431

B1: Inhibitor of nuclear factor kappa-B kinase subunit beta (Homo sapiens), O14920 (parent)
chain: MSWSPSLTTQTCGAWEMKERLGTGGFGNVIRWHNQETGEQIAIKQCRQELSPRNRERWCLEIQIMRRLTHPNVVAARDVPEGMQNLAPNDLPLLAMEYCQGGDLRKYLNQFENCCGLREGAILTLLSDIASALRYLHENRIIHRDLKPENIVLQQGEQRLIHKIIDLGYAKELDQGSLCTSFVGTLQYLAPELLEQQKYTVTVDYWSFGTLAFECITGFRPFLPNWQPVQWHSKVRQKSEVDIVVSEDLNGTVKFSSSLPYPNNLNSVLAERLEKWLQLMLMWHPRQRGTDPTYGPNGCFKALDDILNLKLVHILNMVTGTIHTYPVTEDESLQSLKARIQQDTGIPEEDQELLQEAGLALIPDKPATQCISDGKLNEGHTLDMDLVFLFDNSKITYETQISPRPQPESVSCILQEPKRNLAFFQLRKVWGQVWHSIQTLKEDCNRLQQGQRAAMMNLLRNNSCLSKMKNSMASMSQQLKAKLDFFKTSIQIDLEKYSEQTEFGITSDKLLLAWREMEQAVELCGRENEVKLLVERMMALQTDIVDLQRSPMGRKQGGTLDDLEEQARELYRRLREKPRDQRTEGDSQEMVRLLLQAIQSFEKKVRVIYTQLSKTVVCKQKALELLPKVEEVVSLMNEDEKTVVRLQEKRQKELWNLLKIACSKVRGPVSGSPDSMNASRLSQPGQLMSQPSTASNSLPEPAKKSEELVAEAHNLCTLLENAIQDTVREQDQSFTALDWSWLQTEEEEHSCLEQAS

Variants of: B1
Details: with ikba_human NFKBIA

Variant | effect of a mutation on the interaction
K44M | disrupting interaction
